Experiment: yeast display, Sf9 membrane polyspecificity reagent, FACS + sequencing; frameworks hold sequencing errors
In short: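 After 36–48 hours of galactose induction, yeast (Saccharomyces cerevisiae BJ5465) displaying a synthetic nanobody library were stained at 4 °C for 1 hour with 10% biotinylated, detergent-solubilized Sf9 membrane reagent. Streptavidin microbeads enriched the stained cells before FACS sorting into low and high (top ~1%) gates on anti-HA and streptavidin fluorescence. Each clone's polyreactivity label reflects its gate of origin.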

Sequence	polyreactivity (PSR sort gate)
QVQLVESGGGLVQAGGSLRLSCAASGSILVGNPMGWYRQAPGTERELVAAISKSGSSTHYADSVKGRFTISRDNAKNTFYLQMNSLKPEDTAVYYCNAVGRVYRAKYDYWGQGTQVTVSS	high polyreactivity
QVQLVESGGGLVQAGGSLRLSCAASGSILVNMGWSRQAPAKERELVAAIRYGGGRTYYADSVKGRFTISRDNAKNTVYLQMNSLKPEDTEVYYCAKKYIWVWAPAKQYGFDSWGQGTQVTVSS	low polyreactivity
QVQLVESGGGLVQAGGSLRLSCAASGSILVPNAMGWYRQAPRKERELVAGISANGGSTYYADSVKGRFTISRDNAKNTVYFQMNSLKPEDTAVYDCNARLYWDWYGDDYWGQGTQVTVSS	low polyreactivity
QVQLVESGGGLVQAGGSLRLSCAASGSILVPYTMGWYRQAPGKERELVASISYSGGTTYYADSVKGRFTISRDNAKNTVYLQMNSLKPEDTAVYYCAADWDESYSYRRYRHYNYWGQGTQVTVSS	low polyreactivity
QVQLVESGGGLVQAGGSLRLSCAASGSILWENAMGWYRQAPGKERELVATISVSGGGTYYADSVKGRFTISRDNAKNTVYLQMNSLKPEDTAVYYCNARYGNESQGWEDYWGQGTQVTVSS	low polyreactivity
QVQLVESGGGLVQAGGSLRLSCAASGSILWHYAMGWYRQAPGKERELVAAISGSGRTNYADSVKGRFTISRDNAKNTVYLQMNSLKPEDTAVYYCARVHGTSESKYYYWGQGTQVTVSL	low polyreactivity
QVQLVESGGGLVQAGGSLRLSCAASGSILWLYVMGWYRQAPGKERELVATITSSGGSTYYADSVKGRFTISRDNAKNSVYLQMNSLKPEDTAVYYCAADYSRDEYDYWGQGTQVTVSS	low polyreactivity
QVQLVESGGGLVQAGGSLRLSCAASGSILWSYAMGWYRQAPGKERELVAAIRSGGSTYYADSVKGRFTISRDNAKNTVYLQMNSLKPEDTAVYYCNATYAPLFEYDYWGQGTQVTVSS	low polyreactivity
QVQLVESGGGLVQAGGSLRLSCAASGSILYPYAMGWYRQAPGKERELVAAISSDGSTYYADSVKGRFTISRDNAKNTVYLQMNSLKPEDTAVYYCNADIGPRYDYWGQGTQVTVSS	high polyreactivity
QVQLVESGGGLVQAGGSLRLSCAASGSILYTYAMGWYRQAPGKERELVAAISRGGGSTYYADSVKGRFTISRDNAKNTVYLQMNSLKPEDTAVYYCAARKLTRGTGRDDEYWGQGTQVTVSS	high polyreactivity
QVQLVESGGGLVQAGGSLRLSCAASGSILYVYAMGWYRQAPGKERELVAAISFSGGSTYYADSVKGRFTISRDNAKNTVYLQMNSLKPEDTAVYYCAADVSYDIYVEYDYWGQGTQVTVSS	low polyreactivity
QVQLVESGGGLVQAGGSLRLSCAASGSILYWYAMGWYRQAPGKERELVAGIDWSGGSTYYADSVKGRFTISRDNAKNTVYLQMNSLKPEDTAVYYCNAVQNRGRGSHRGESTYYYWGQGTQVTVSS	low polyreactivity
QVQLVESGGGLVQAGGSLRLSCAASGSILYYNAMGWYRQAPGKEREFVAAISDSGSSTYYADSVKGRFTITRDNAKNTVYLQMNSLKPEDTAVYYCNTEIYVDIISDYGYWGQGTQVTVSS	low polyreactivity
QVQLVESGGGLVQAGGSLRLSCAASGSILYYYAMGWYRQAPGKERELVAAISSGGSTYYADSVKGRFTISRDNAKNTVYLQMNSLKPEDTAVYYCAARRDNPWAKAPRYKMYYWGQGTQVTVSS	high polyreactivity
QVQLVESGGGLVQAGGSLRLSCAASGSIMSYYAMGWYRQAPGQVREFVAAISSGGGTYYADSVKGRFTISRDNAKNTVYLQMNSLNAEDTAVFYCNADHASSIQFEYWGQGTQVTVSS	low polyreactivity
QVQLVESGGGLVQAGGSLRLSCAASGSIQTLYAMGWYRQAPGKERELVAAITSGDRTNYADSVKGRFTISRDNAKNTVYLQMNSLKPEDTAVYYCATKRWWGRYDYWGQGTQVTVSS	high polyreactivity
QVQLVESGGGLVQAGGSLRLSCAASGSIRRYAMGWYRQAPGKERELVAAISGSGVSTYYADSVKGRFTISRDNAKNTVYLQMNSLKPEDTAVYYCAAAAIYFRYDYWGQGTQVTVSS	high polyreactivity
QVQLVESGGGLVQAGGSLRLSCAASGSISAAYAMGWYRQAPGKERELVADISSSGVSTYYADSVKGRFTISRDNAKNTVYLQMNSLKQEDTAVYYCAKNRVAGYRKYDYWGQGTQVTVSS	low polyreactivity
QVQLVESGGGLVQAGGSLRLSCAASGSISAQNAMGRYRQAPGKERELVATINSGGRTNYADSVKGRFTISRDNAKNTVYLQMNSLNPEDTAVYYCNTVVRGAYTYGDVSKYDYWGQGNQVTVSS	low polyreactivity
QVQLVESGGGLVQAGGSLRLSCAASGSISDVYAMGWYRQAPGKERELVAAYADSVKGRFTISRDNAKNTVYLQMNCLKPVDTAVYYCNFVETSQELGWQAFDYWGQGTQVTVSS	low polyreactivity
QVQLVESGGGLVQAGGSLRLSCAASGSISFSNAMGWYRQAPGKERELVASITSGGSTKYADSVKGRFTISRDNAKNTVYLQMNSLKPEDTAVYYCAADGYDYWGQGTQVTVSS	low polyreactivity
QVQLVESGGGLVQAGGSLRLSCAASGSISGGYAMGWYRQAPGKERELVAVIDSGGSTYYADSVKGRFTISRDNAKNTVYLQMNSLKPEDTAVYYCNADYSSQDNFDYWGQGTQVTVSS	low polyreactivity

Sequence	polyreactivity (PSR sort gate)
QVQLVESGGGLVQAGGSLRLSCAASGSISGRNTMGWYRQAPGKERELVAAISWSGGSTYYADSVKGRFTISRDNAKNTVYLQMNSLKPEDTAVYYCAARNWRGVGGGVGRYGYWGQGTQVTVSS	high polyreactivity
QVQLVESGGGLVQAGGSLRLSCAASGSISGVYAMGWYRQAPGKERELVAAISRSGGSTYYADSVKGRFTISRDNAKNTVYLQMNSLKPEDTAVYYCAAEYTYYSYGGNYDYWGQGTQVSVSS	low polyreactivity
QVQLVESGGGLVQAGGSLRLSCAASGSISGYYVKGWYRQAQGKERELVAAITWRGGSTYYADSVKGRFTISRDNAKNTVYLQMNSLKPEDTAVYYCNKVPGRRSTFEYWGQGTQVTVSS	high polyreactivity
QVQLVESGGGLVQAGGSLRLSCAASGSISIFYMGWYRQAPGKERELVAAISWSGGRTYYADSVKGRFTISRDNAKNTVYLQMNSLKREDTAVYYCAASRSFPGYGLYYYWGQGTQVTVSS	low polyreactivity
QVQLVESGGGLVQAGGSLRLSCAASGSISKINAMGWYRQAPGKESELGAAINTGDSTYYADSVKGRFTISRDNAKNTVYLQMNSLKPEDTAVYYCAAEGSPTGYDDWGQGTQGTVSS	low polyreactivity
QVQLVESGGGLVQAGGSLRLSCAASGSISLHYAMGWYRQAPGKERELVAAISKSGGSTYYADSVKGRFTISRDNAKNTVYLQMNSLKPEDTAVYYCAADTYRSFGYNYWGQGTQVTVSS	high polyreactivity
QVQLVESGGGLVQAGGSLRLSCAASGSISNRNAMGWYRQAPGKERELVAAITYSGGSTYYADSVKGRFTISRDNAKNTVYLQMNSLKPEDTAVYYCAKDHYRFRYDYWGQGTQVTVSS	low polyreactivity
QVQLVESGGGLVQAGGSLRLSCAASGSISNVYDMGWYRQAPGKERELVATISRTGDSTYYADSVKGRFTISRDNAKNTVYLQMNSLKPEDTAVYYCAARFYWWGLGDDYWGQGTQVTVSS	high polyreactivity
QVQLVESGGGLVQAGGSLRLSCAASGSISPQNVMGWYRQAPGKERELVAAITGGGYTNYADSVKGRFTISRDNAKKTVYLQMNSLKPEDTAVYYCNADYFQDRLDYWGQGTQVTVSS	low polyreactivity
QVQLVESGGGLVQAGGSLRLSCAASGSISRVYAMGWYRAAPGKERELVASISRSGGSTYYADSVKGRFTISRDNAKNTVYLQRNSLKPEDTAVYYCAKASKGQYRFDYWGQGTQVTVSS	low polyreactivity
QVQLVESGGGLVQAGGSLRLSCAASGSISSLNTMGWYRQAPGKERELVASISRRGGSTYYADSVKGRFTISRDNAKNTVYLQINSLKPEDTAVFYCAARGVGGTVPTRYDYWGQGTQVTVSS	high polyreactivity
QVQLVESGGGLVQAGGSLRLSCAASGSISSQNAMVSYRQAPGKERELVAAISWIGGSTYYADSVKGRFTISRDFAKNTVYLQMNSLKPEDTAVYYCAKDRARGFKYYYWGQGTQVTVSS	low polyreactivity
QVQLVESGGGLVQAGGSLRLSCAASGSISSWYAMGWYRQAPGKERELVAAISSGVTTYYADSVKGRFTISRDNAKNTVYLQMHSLKPEDTAVDYCAAKTALYRERGYWGQGTQVTVSS	low polyreactivity
QVQLVESGGGLVQAGGSLRLSCAASGSISSYAMGWYRQAPGKERELVASITWHGGGTYYADSVKGRFTISRDNAKNTVYLQMNSLKPEDTAVYYCNADYVYSWYEPLKYNYWGQGTQVTVSS	low polyreactivity
QVQLVESGGGLVQAGGSLRLSCAASGSISVNAMVWDRQAPGKERELVAVINRSGGNTYYADSVKGRFTISRDNAKNTVYLQMNSLKPEDTAVYYCAAKWTRSYSRYDYWGQVTQVTVSS	high polyreactivity
QVQLVESGGGLVQAGGSLRLSCAASGSISWWYAMGWYRQAPGKERELVAAISSRGGSTYYADSVKGRFTISRDNAKNTVYLQMNSLKPEDTAVYYCAKYYYVGTSFYQGDYWGQGTQVTVSS	low polyreactivity
QVQLVESGGGLVQAGGSLRLSCAASGSISYRYDMGWYRQAPGKERELVATIRSGGSTNYADSVKGRFTISRDNAKNTVYLQMNSMIPEDTAVYYCAARLYARKILHFSADSDYWGQGTQVTVSS	low polyreactivity
QVQLVESGGGLVQAGGSLRLSCAASGSISYRYVMGWYRQAPGKERELVAAITTSGGSTYYADSVKGRFTISRDNAKNTVYLQMNSLKPEDTAVYYCATVYQAAQLRSHYDYWGQGTQVTVSS	high polyreactivity
QVQLVESGGGLVQAGGSLRLSCAASGSISYYNAMGWYRQAPGKERELVATITDSGGSTYYADSVKGRFTISRDNAKNTVYLQLNSLKPEDTAVYYCAVDYSEWYSIYDYWGQGTQVTVSS	low polyreactivity
QVQLVESGGGLVQAGGSLRLSCAASGSIVGYAMGWYRQAPGKERELVAAISSGGSTNYADSVKGRFTISSDNAKNTVYLQMNSLKPVDTAVYYCAARRRYKSGYWGQGTQVTVSS	high polyreactivity
QVQLVESGGGLVQAGGSLRLSCAASGSIVPFYAMGWDRQAPGKERELVATISSGDSTHYADSVKGRFTISRDNAKNTVYLQMNSLKPEDTAVYYCNRRNKAQRFFELGYWGQGTQVTVSS	low polyreactivity

— the nanobody polyreactivity screen of Harvey et al. (2022)
